# Data reported in the supplement of paper PMC7125110.
# ± gives the standard error. This sample holds only a part of the variants without activity.
# B1: glmS ribozyme (parent)
# chain: AUAAAAGCGCCAGAACUACAGAAAUGUAGUUGACGAGGAGGAGGUUUAUCGAAUUUUCGGCGGAUGCCUCCAAA
# What was measured:
# Conditions in all cases: with glucosamine-6-phosphate
# glucosamine-6-phosphate [1] = variants of: B1; test: self-cleavage kobs at 40 uM GlcN6P; higher = faster cleavage; RNA array
# Summary of the method: (§1)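 Barcoded ribozyme variants, transcribed in situ by E. coli RNA polymerase on sequenced MiSeq chips, were followed via a hybridised Cy3 probe at 37 °C. Glucosamine-6-phosphate ranged from 40 μM to 10 mM in HEPES/KCl/Mg(OAc)2 buffer. kobs came from decay fits to per-tile medians, and kcat and KM from weighted Michaelis–Menten fits.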
# glucosamine-6-phosphate [2] = variants of: B1; test: self-cleavage kobs at 640 uM GlcN6P; higher = faster cleavage; RNA array
# Summary of the method: as §1
# glucosamine-6-phosphate [3] = variants of: B1; test: self-cleavage kobs at 10000 uM GlcN6P; higher = faster cleavage; RNA array
# Summary of the method: as §1
# glucosamine-6-phosphate [4] = variants of: B1; test: self-cleavage kobs at 160 uM GlcN6P; higher = faster cleavage; RNA array
# Summary of the method: as §1
# glucosamine-6-phosphate [5] = variants of: B1; test: self-cleavage kobs at 2500 uM GlcN6P; higher = faster cleavage; RNA array
# Summary of the method: as §1
Variant,self-cleavage kobs at 40 uM GlcN6P (glucosamine-6-phosphate [1]) [s⁻¹],self-cleavage kobs at 640 uM GlcN6P (glucosamine-6-phosphate [2]) [s⁻¹],self-cleavage kobs at 10000 uM GlcN6P (glucosamine-6-phosphate [3]) [s⁻¹],self-cleavage kobs at 160 uM GlcN6P (glucosamine-6-phosphate [4]) [s⁻¹],self-cleavage kobs at 2500 uM GlcN6P (glucosamine-6-phosphate [5]) [s⁻¹]
A12G G62A,< 1e-05,< 1e-05,< 1e-05,,
A12G G62U,< 1e-05,< 1e-05,,,
C11A A39C G62C A64U C67G,< 1e-05,,,,
C11G A15C,< 1e-05,< 1e-05,,< 1e-05,< 1e-05
A12G G35U C50U,< 1e-05,,,,
C11G A39U C50G,< 1e-05,< 1e-05,< 1e-05,< 1e-05,< 1e-05
G13A C16G U65G,< 1e-05,,3.8e-05 ± 1.6e-05,,
C11G G37U A53G,< 1e-05,,,,
C11G C34A A64C,< 1e-05,,< 1e-05,,
A12G C34G G38C A39C A42U G60C C71U,< 1e-05,,,,
C11G A12U,< 1e-05,,,,< 1e-05
C11A A48U,< 1e-05,< 1e-05,,< 1e-05,< 1e-05
A12C A64U C68G,< 1e-05,,,,
C10U U65A,< 1e-05,< 1e-05,< 1e-05,< 1e-05,< 1e-05
C11U A33G U69A,< 1e-05,,< 1e-05,,
A12C A33C A39C,< 1e-05,,,,
G13A A15C A33U G35A C58A,< 1e-05,,,,
C11U C34A,< 1e-05,< 1e-05,,,
A12C G35U U47C A48U,< 1e-05,< 1e-05,< 1e-05,,
G13C G41U C70U,< 1e-05,,,,
A12U U55A,0.00252 ± 0.00039,0.0231 ± 0.0089,0.0587 ± 0.02,0.00433 ± 0.0018,
G13A G63A,< 1e-05,,< 1e-05,< 1e-05,
C11U A15C G62C,< 1e-05,,< 1e-05,,
G13C C50G G63A C70G,0.000201 ± 7.2e-05,,0.000144 ± 4.2e-05,,
G13C U31A G40U,< 1e-05,< 1e-05,,,
C11A U49G C67G,4.47e-05 ± 1.8e-05,,,,
G13C G40U,< 1e-05,< 1e-05,,< 1e-05,

Variant,self-cleavage kobs at 40 uM GlcN6P (glucosamine-6-phosphate [1]) [s⁻¹],self-cleavage kobs at 640 uM GlcN6P (glucosamine-6-phosphate [2]) [s⁻¹],self-cleavage kobs at 10000 uM GlcN6P (glucosamine-6-phosphate [3]) [s⁻¹],self-cleavage kobs at 160 uM GlcN6P (glucosamine-6-phosphate [4]) [s⁻¹],self-cleavage kobs at 2500 uM GlcN6P (glucosamine-6-phosphate [5]) [s⁻¹]
C10U G62A,< 1e-05,< 1e-05,< 1e-05,,
G13C C16U G63A,< 1e-05,,,,
A12C U57A G62A,< 1e-05,,,,
C11G G40A A42G C58U C67G C68A,0.00042 ± 9.3e-05,,0.000191 ± 3.9e-05,,
A12U G41A G44C U55G,< 1e-05,,< 1e-05,,
G13C A33G A48C,< 1e-05,,,,< 1e-05
C11A C61A C67A,0.000153 ± 4.5e-05,,7.62e-05 ± 2.5e-05,,
C11G G35C C70G,8.82e-05 ± 4e-05,,,,
C11U G13A,< 1e-05,,6.97e-05 ± 1.7e-05,,3.03e-05 ± 1.4e-05
C11A C34G,< 1e-05,< 1e-05,< 1e-05,< 1e-05,
C10U G40A C67A,< 1e-05,,< 1e-05,,
G13C A48C,< 1e-05,,< 1e-05,< 1e-05,< 1e-05
G13C A15U C16G A39C,< 1e-05,,< 1e-05,,
G13C A39U G59U,< 1e-05,,,,
A12C G51U,< 1e-05,< 1e-05,,,
A12C G41U,5.28e-05 ± 7e-06,0.00028 ± 6.1e-05,0.00129 ± 0.00013,7.73e-05 ± 8.9e-06,0.00034 ± 6.3e-05
C11U U30C A52C,< 1e-05,,,,
C10U G59C C68A,< 1e-05,,< 1e-05,,
A12U A36G A52U C71G,< 1e-05,,< 1e-05,,< 1e-05
A12G C50U,< 1e-05,,< 1e-05,< 1e-05,
G13A G41C,< 1e-05,< 1e-05,,,
C10U G29C G37A A53C,< 1e-05,,,,
C11U G29U C50U C71G,4.57e-05 ± 2.1e-05,,,,
C11U G37U G43U G63U,< 1e-05,,< 1e-05,,< 1e-05
A12U G32A A33U,< 1e-05,< 1e-05,,,
C11G C16G,< 1e-05,,< 1e-05,< 1e-05,< 1e-05
G13A A15U A33U G37U U46C U49A,< 1e-05,,,,< 1e-05
